Source: US20120040896

What was measured:
[1] = tested on: GST-BRCA1 fusion protein A509+S694 (T509A mutant, nucleotides 1323-2538)
[2] = tested on: GST-BRCA1 fusion protein E509+S694 (phospho-mimic T509E mutant, nucleotides 1323-2538)
[3] = tested on: GST-BRCA1 fusion protein T1246 (nucleotides 3714-4310)
[4] = tested on: GST-BRCA1 fusion protein S694/T696 (nucleotides 1926-2538)
[5] = tested on: purified full length BRCA1 protein (ProteinOne)
[6] = tested on: GST-BRCA1 fusion protein with a T509A mutation (A509, nucleotides 1323-1886)
[7] = tested on: GST-BRCA1 fusion protein T509 (nucleotides 1323-1886)
[8] = tested on: GST-BRCA1 fusion protein wild-type T509+S694 (nucleotides 1323-2538)
GST-BRCA1 fusion protein wild-type T509+S694 (nucleotides 1323-2538), sequence (chain, as listed by the source): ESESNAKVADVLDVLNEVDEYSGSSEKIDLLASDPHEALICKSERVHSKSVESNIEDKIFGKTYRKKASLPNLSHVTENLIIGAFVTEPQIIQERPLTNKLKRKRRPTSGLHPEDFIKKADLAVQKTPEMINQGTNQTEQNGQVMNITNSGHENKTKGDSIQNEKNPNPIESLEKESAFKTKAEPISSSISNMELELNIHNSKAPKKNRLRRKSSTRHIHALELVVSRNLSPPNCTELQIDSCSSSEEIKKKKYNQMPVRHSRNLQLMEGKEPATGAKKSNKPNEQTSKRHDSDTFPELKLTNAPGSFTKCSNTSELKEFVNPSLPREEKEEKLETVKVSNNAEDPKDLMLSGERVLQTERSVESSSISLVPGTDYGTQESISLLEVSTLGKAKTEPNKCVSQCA

GST-BRCA1 fusion protein S694/T696 (nucleotides 1926-2538), sequence (chain, as listed by the source): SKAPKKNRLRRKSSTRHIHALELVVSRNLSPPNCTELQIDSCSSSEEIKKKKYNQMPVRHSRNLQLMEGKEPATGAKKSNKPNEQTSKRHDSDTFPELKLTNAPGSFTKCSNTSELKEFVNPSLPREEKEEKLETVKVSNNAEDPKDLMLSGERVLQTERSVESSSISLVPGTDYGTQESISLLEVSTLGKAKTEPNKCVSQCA
GST-BRCA1 fusion protein T1246 (nucleotides 3714-4310), sequence (chain, as listed by the source): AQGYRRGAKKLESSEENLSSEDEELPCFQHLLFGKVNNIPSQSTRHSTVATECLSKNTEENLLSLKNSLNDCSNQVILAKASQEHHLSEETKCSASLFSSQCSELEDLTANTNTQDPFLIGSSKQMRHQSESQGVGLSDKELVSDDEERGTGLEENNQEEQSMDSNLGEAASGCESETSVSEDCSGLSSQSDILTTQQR
GST-BRCA1 fusion protein T509 (nucleotides 1323-1886), sequence (chain, as listed by the source): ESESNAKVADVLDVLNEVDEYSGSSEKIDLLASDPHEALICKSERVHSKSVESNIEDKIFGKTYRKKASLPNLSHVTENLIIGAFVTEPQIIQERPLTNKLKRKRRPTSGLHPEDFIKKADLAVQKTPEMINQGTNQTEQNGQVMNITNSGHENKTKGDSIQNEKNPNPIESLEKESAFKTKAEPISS

Substance: purified active Akt1
- in vitro Akt kinase assay (phosphorylation signal) [1]: equally phosphorylated by Akt, with the intensity of these signals approximately equal to one half of the signal obtained with the wild-type T509+S694 construct
- in vitro Akt kinase assay (phosphorylation signal) [2]: equally phosphorylated by Akt, with the intensity of these signals approximately equal to one half of the signal obtained with the wild-type T509+S694 construct
- in vitro Akt kinase assay (phosphorylation) [3]: T1246 did not appear to be phosphorylated
- in vitro Akt kinase assay (phosphorylation) [4]: both the T509 and S694/T696 constructs were strongly phosphorylated
- in vitro kinase reaction (phosphorylation) [5]: full length BRCA1 is phosphorylated by Akt in vitro
- in vitro Akt kinase assay (phosphorylation) [6]: A fusion protein with a T509A mutation was not phosphorylated
- in vitro Akt kinase assay (phosphorylation) [7]: both the T509 and S694/T696 constructs were strongly phosphorylated
- in vitro Akt kinase assay (phosphorylation signal) [8]: the signal obtained with the wild-type T509+S694 construct
